# Experimental data as given in US20260199576A1 (KYOTO UNIVERSITY, published 2026).
# How the values were obtained:
# [1] = target: T1, Biotinylated human integrin αvβ6 (ACROBiosystems, product number IT6-H82E4) (human, UniProt P06756 31-992; P18564 22-707, biotinylated (Avi tag at the C-terminus) ; Biotin on the Avi tag at the C-terminus of the αv chain; the tag is not in the letters.); assay: BLI (Octet RED96), biotinylated integrin αvβ6 on biosensor, antibody in solution
# T1 construct: Bought heterodimer; also called biotinylated integrin αvβ6; not shown: basic tail on the β6 chain
# T1 sequence (P06756 31-992 limits assumed, chain 1 of 2): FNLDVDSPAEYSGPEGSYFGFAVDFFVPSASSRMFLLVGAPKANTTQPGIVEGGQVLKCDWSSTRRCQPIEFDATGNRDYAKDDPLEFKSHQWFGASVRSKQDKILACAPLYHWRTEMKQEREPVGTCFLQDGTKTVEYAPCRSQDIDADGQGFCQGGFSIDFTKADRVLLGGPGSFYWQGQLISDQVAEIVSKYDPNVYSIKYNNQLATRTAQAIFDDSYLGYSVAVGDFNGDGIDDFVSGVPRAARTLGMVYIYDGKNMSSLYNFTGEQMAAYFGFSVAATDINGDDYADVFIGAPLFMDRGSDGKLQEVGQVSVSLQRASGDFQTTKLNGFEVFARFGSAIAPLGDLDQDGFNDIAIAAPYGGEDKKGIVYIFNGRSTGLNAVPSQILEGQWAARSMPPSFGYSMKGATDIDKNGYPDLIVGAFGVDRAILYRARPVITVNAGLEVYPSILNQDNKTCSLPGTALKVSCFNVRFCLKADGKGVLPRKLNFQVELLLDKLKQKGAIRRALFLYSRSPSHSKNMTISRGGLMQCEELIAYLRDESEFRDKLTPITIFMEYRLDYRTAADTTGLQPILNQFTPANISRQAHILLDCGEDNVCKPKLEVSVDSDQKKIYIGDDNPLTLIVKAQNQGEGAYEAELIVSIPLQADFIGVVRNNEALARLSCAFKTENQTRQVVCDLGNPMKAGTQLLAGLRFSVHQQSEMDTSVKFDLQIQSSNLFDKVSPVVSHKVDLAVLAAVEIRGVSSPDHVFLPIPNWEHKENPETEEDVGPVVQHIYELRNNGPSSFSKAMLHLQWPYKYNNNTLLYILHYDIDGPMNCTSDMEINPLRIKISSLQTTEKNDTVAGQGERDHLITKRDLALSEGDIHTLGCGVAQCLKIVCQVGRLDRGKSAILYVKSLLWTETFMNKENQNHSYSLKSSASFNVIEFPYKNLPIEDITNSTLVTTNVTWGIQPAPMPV
# T1 sequence (P18564 22-707 limits assumed, chain 2 of 2): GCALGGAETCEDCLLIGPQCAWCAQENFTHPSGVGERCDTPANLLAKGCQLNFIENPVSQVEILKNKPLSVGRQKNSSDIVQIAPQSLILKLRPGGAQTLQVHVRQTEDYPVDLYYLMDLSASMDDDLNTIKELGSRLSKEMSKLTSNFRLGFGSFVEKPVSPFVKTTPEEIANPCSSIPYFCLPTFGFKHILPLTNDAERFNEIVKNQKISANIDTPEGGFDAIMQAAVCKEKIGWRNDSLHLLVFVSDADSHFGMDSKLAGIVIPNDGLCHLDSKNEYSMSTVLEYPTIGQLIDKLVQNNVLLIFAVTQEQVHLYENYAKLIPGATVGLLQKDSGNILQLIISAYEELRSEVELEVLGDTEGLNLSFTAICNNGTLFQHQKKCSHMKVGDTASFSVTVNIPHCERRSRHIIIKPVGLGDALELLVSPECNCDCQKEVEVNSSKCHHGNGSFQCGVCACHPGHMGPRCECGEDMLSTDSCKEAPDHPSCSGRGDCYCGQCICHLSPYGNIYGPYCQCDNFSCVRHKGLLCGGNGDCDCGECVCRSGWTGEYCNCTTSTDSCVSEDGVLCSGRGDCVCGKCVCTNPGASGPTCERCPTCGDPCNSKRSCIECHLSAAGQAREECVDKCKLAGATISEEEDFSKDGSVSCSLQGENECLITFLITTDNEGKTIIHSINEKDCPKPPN
# Experimental: Next, the binding affinity of the obtained anti-integrin αvβ6 monoclonal antibodies derived from UC or PSC patients was determined. The KD value was measured by biolayer interferometry using Octet RED96 (Sartorius). A 100 nM solution of the antibody, and serially diluted solutions of biotinylated integrin αvβ6 protein in the range of 200 to 6.25 nM were prepared using a buffer containing 20 mM Tris, 150 mM NaCl, 1 mM CaCl₂, 1 mM MgCl₂, 0.1% human serum albumin (014-27604; Fujifilm Wako Pure Chemical Industries, Ltd.) and 0.02% Tween 20 (1610781; Bio-Rad), and added to a 96-well plate (Greiner; 655209) at 200 μL/well. The biotinylated integrin αvβ6 was allowed to bind for 5 minutes to a biosensor (18-5136; Sartorius) soaked in the buffer. After washing of the biosensor, the biosensor was immersed in each antibody solution for 5 minutes (binding reaction). Then, the sensor was immersed in the buffer solution for 1 minute (dissociation reaction). The binding dissociation constant (KD value) between “integrin αvβ6-each monoclonal antibody” was determined using the analysis software (Octet BLI Analysis) attached to the device.
# [2] = target: T2, human integrin αvβ6 (ACROBiosystems, product number IT6-H52E1) (human, UniProt P06756 31-992; P18564 22-707); assay: competition ELISA: integrin αvβ6 coated, peptide RGDS 0-100 µg/mL added together with PSC patient IgG 1:100 (competitor); bound human IgG detected (A450)
# T2 construct: also called histidine-tagged integrin αvβ6; histidine-tagged extracellular domain protein of integrin αvβ6; not shown: linker and basic tail on the β6 chain
# T2 sequence (P06756 31-992 limits assumed, chain 1 of 2): as the sequence (P06756 31-992 limits assumed, chain 1 of 2) above
# T2 sequence (P18564 22-707 limits assumed, chain 2 of 2): as the sequence (P18564 22-707 limits assumed, chain 2 of 2) above
# Experimental: A microtiter plate was coated with 100 μL/well of 2 μg/mL integrin αvβ6 overnight at 4° C., and then blocked. Peptide RGDS (SEQ ID NO: 9: Arg-Gly-Asp-Ser) or RGES (SEQ ID NO: 10: Arg-Gly-Glu-Ser) as RGD motif or RGE motif (control) was added together with 100 μL of patient-derived IgG dilution (1:100) to the plate, and the plate was incubated at room temperature for 60 minutes. After washing, 100 μl/well of an HRP-labeled anti-human IgG antibody (50,000-fold dilution; ab6759; Abcam) was added to the plate and the plate was incubated at room temperature for 60 minutes. After washing, the plate was incubated with 3,3′,5,5′-tetramethylbenzidine for 7 minutes, and an absorbance density (OD value) at 450 nm was measured to detect human IgG bound to integrin αvβ6 on the solid phase.
binder,measurement,setting,value
"UC antibody 7 (antibody, V domains shown, Human monoclonal IgG from a UC patient, expressed in CHO cells) VH: VQLVESGGGVVQPGRSLRLSCAASGFTFSSYGMHWVRQAPGKGLEWVAFISYDGINKYYADSVKGRFTISRDNSKDTLYLQMNSLRAEDTAVYYCAKVIPRIRGSGDKAGIKDYYYYGMDVWGQGTTVTVSS VL: EIVLTQSPATLSLSPGERATLSCRASQSVSSYLAWYQQKPGQAPRLLIYDASNRATGIPARFSGSGSGTDFTLTISSLEPEDFAVYYCQQRSNWLTFGGGTKVEIK",Kd,[1],5.18 nM
"UC antibody 2 (antibody, V domains shown, Human monoclonal IgG from a UC patient, expressed in CHO cells) VH: EVQLVESGGGLVKPGGSLRVSCVVSGFTITNAWMSWVRQAPGKGLEWVGRSKSKTDGGTTDYIAPVKGRFTISRDDSKNTLYLEMNSLKTEDTAVYYCATDRPLKLRGRDYNYYVMDVWGQGTTVTVSS VL: DIQMTQSPSSLSASVGDRVTITCRASQSIARSLNWYQQKPGKAPNLLIYAASTLQSGVPSRFSGSGSGTDFTLTIGSLQPEDFATYSCQQSSSSPLTFGGGTRVEIK",Kd,[1],1.95 nM
"UC antibody 3 (antibody, V domains shown, Human monoclonal IgG from a UC patient, expressed in CHO cells) VH: QVQLVESGGGVVQPGRSLRVSCAASGFTFSIYGMHWVRQAPGKGLEWVAVISSDGTNQYYADSVKGRFTISRDNSNNTVYLQMNSLGGEDTAVYYCAKDRGRRGDSGWYRHFDYWGQGTLVTVSS VL: QSVLTQPPSVSAAPGQKVTISCSGSSSNNGNNYVSWYQQVPGTAPKLLIYDNNKRPSGIPDRFSGSKSGTSATLGITGLQTGDEADYYCGTWDSSLSAVVFGGGTKLTVL",Kd,[1],15 nM
"UC antibody 8 (antibody, V domains shown, Human monoclonal IgG from a UC patient, expressed in CHO cells) VH: QVQLVESGGGVVQPGRSLRLSCAASGFTFSSYAMHWVRQAPGKGLEWVAFISYDGINKYYADSVKGRFTISRDNPKDTLYLQMNSLRAEDTAVYYCAKVIPRIRGSGDKAGIKDYYYYGMDVWGRGTTVTVSS VL: not shown",Kd,[1],10.6 nM
"UC antibody 9 (antibody, V domains shown, Human monoclonal IgG from a UC patient, expressed in CHO cells) VH: QVQLVESGGGVVQPGRSLRLSCAASGFTFSSYGMHWVRQAPGKGLEWVAFISYDGINKYYADSVKGRFTISRDNSKDTLYLQMNSLRAEDTAVYYCAKVIPRIRGSGDKAGIKDYYYYGMDVWGQGTTVTVSS VL: QSVLTQPPSVSAAPGQKVTISCSGSSSNIGNNYVSWYQQLPGTAPKLLIYDNNKRPSGIPDRFSGSKSGTSATLGITGLQTGDEADYYCGTWDSSLSAVVFGGGTKLTVL",Kd,[1],5.96 nM
"UC antibody 5 (antibody, V domains shown, Human monoclonal IgG from a UC patient, expressed in CHO cells) VH: QVQLVQSGAEVKKPGASVKVSCKASGHTFSSFGISWVRQAPGQGLEWMGWISAYNGNTNSAQKFQGRVTMTTDTSTSTAYMELRSLRSDDTAVYYCARDRGFRGDTAMIKGGMDVWGQGTTVTVSS VL: VLTQPPSVSVSPGQTASITCSGDKLGDKYACWYQQKSGQAPVLVIYQDSKRPSGIPERFSGSNSGNTATLTISGTQAMDEADYYCQAWDSSTALVFGGGTKLTVL",Kd,[1],8.25 nM
"PSC antibody 1 (antibody, V domains shown, Human monoclonal IgG from a PSC patient, expressed in CHO cells) VH: QVQLVQSGAEVKKPGASVKVSCKASGHTFSSFGISWVRQAPGQGLEWMGWISAYNGNTNSAQKFQGRVTMTTDTSTSTAYMELRSLRSDDTAVYYCARDRGFRGDTAMIKGGMDVWGQGTTVTVSS VL: QSALTQPASVSGSPGQSITISCTGTSSDVGGYNYVSWYQQHPGKAPQLIIYDVSKRPSGVSNRFSGSRSGNTASLTISGLQAEDEADYYCSSYTSSSTYVFGTGTKVTVL",Kd,[1],8.91 nM
"UC antibody 6 (antibody, V domains shown, Human monoclonal IgG from a UC patient, expressed in CHO cells) VH: QVQLVQSGAEVKKPGASVKVSCKASGHTFSSFGISWVRQAPGQGLEWMGWISAYNGNTNSAQKFQGRVTMTTDTSTSTAYMELRSLRSDDTAVYYCARDRGFRGDTAMIKGGMDVWGQGTTVTVSS VL: QSVLTQPPSVSGAPGQRVTISCTGSSSTIGANNDVHWYQQLPGTAPKLLIYGNKNRPSGVSDRFSGSKSGTSASLAITGLQAEDEADYYCQSYDSSLSDLYVFGTGTKVTVL",Kd,[1],20.8 nM
"UC antibody 4 (antibody, V domains shown, Human monoclonal IgG from a UC patient, expressed in CHO cells) VH: QVQLVQSGAEVKKPGASVKVSCKASGYTFSSFGISWVRQAPGQGLEWMGWISAYNGNTNSAQKFQGRVTMTTDTSTSTAYMELRSLRSDDTAVYYCARDRGFRGDTAMIKGGMDVWGQGTTVTVSS VL: SYELTQPPSVSVSPGQTARITCSGDALPKQYAYWYQQKPGQAPVLVIYKDSERPSGIPERFSGSSSGTMATLTISGAQVEDEGDYYCSSTDSNSQRVFGGGTKLTVL",Kd,[1],3.15 nM
RGDS (also called RGD peptide; RGD motif) [Peptide RGDS],binding result,[2],binds
